# Data: the supplement of paper PMC9170038
# Test system: MS2 coat protein
# Assay: apparent KD of MS2 coat protein; designed switch direction (-1 OFF switch, 1 ON switch): -1; higher = weaker reporter binding
# Procedure, shortened: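 Three titration conditions were used: no input, 200 uM small-molecule ligand, and an oligonucleotide input. In each, SNAP-549-labelled MS2 coat protein was raised from 0.7 or 1.5 nM, doubling, to 3 µM over designed RNA switches transcribed on Illumina chips by stalled E. coli RNA polymerase. Curve fits of normalised cluster fluorescence gave values whose per-design median over clusters is the apparent KD.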
# [1] = input ligand: microRNA oligo, concentration not stated
# [2] = Eterna round: R95, input ligand: microRNA oligo, concentration not stated
# [3] = Eterna round: R95, input ligand: FMN 200 uM
# [4] = Eterna round: R95, input ligand: none
Sequence,apparent KD of MS2 coat protein (input ligand: FMN 200 uM),apparent KD of MS2 coat protein [1],apparent KD of MS2 coat protein (input ligand: none),apparent KD of MS2 coat protein [2],apparent KD of MS2 coat protein [3],apparent KD of MS2 coat protein [4]
"ACAUGUCAUCGAGGAUAUUGUACACAUGAGGAUCACCCAUGUACUCGGUUGCUCUAGCAUGCGUUCGAGAAGGCGAUGUACAUU [Ex NG2 #98] (Eterna round: R96, puzzle: Exclusion NG 2)",0.052 µM,0.0888 µM,0.144 µM,,,
UAAUUAAGUGUGAGGAUAUGCUGGUCCUUGGAUCAGCAGAAGGCACAUGAGGAUCACCCAUGUAAAUUAUUUAU [Mat - Exclusion 4 - JL Mod - D60] (puzzle: Brourd's mod of Exclusion 4),,,,0.0732 µM,,
CUUACACAUGAGGAUCACCCAUGUGAGGAUAUGCGUACGUUGUCCGUAGGCGACGUGCGCAGAAGGCGCUUGGU [JL-ex1-3.19 Eli mod] (puzzle: Exclusion 1),,,,0.0553 µM,,
"UCAGGUGCAGGAUAUACAUGAGGAUCACCCAUGUGGUCACGUGACGAUAGUCACGAAUGUAGAAGGGCACCUGA [E3/3-D1] (Eterna round: R97, puzzle: Exclusion 3)",0.0601 µM,,0.958 µM,,,
"AAAAGUUGGUAAGGAUAUCCCACAUUAUUCUGACCCGUGCAAGCUACAUGAGGAUCACCCAUGUGGGAGAAGGUGCGUUAAAGA [Zatiisor] (Eterna round: R96, puzzle: Exclusion NG 2)",0.209 µM,0.0551 µM,0.0788 µM,,,
"AAGAUGUGAGGAUAUCUAUUGAAGCGCGGUUCCCGGCAGAGAGAGAAGGCACAUGAGGAUCACCCAUGUAUAGC [Eternabot (L1) Solution 53] (Eterna round: R97, puzzle: Exclusion 4)",0.0565 µM,,0.0206 µM,,,
AAGAAACAUGAGGAUCACCCAUGUGAGGAUAUGUAAAAUAAAAGAAAAGAAAUAAUAAACAGAAGGCACAAAGG [Mat - Mod of Hog D15] (puzzle: Exclusion 1),,,,0.0309 µM,0.0521 µM,0.0414 µM
"AAACAAGCGUGAGGCUCGUCUUAAAAAGCCUCAUGAAAAACAUGAGGAUCACCCAUGUAAAAUGAUCGAAAGAUCAA [JL turnoff v2 29] (Eterna round: R96, puzzle: Sensor v2, turn-off variant 2)",0.0155 µM,0.0434 µM,0.0176 µM,,,
"AAAUACAAGUAGAGAUUCUACAUGAGGAUCACCCAUGUGCUCGUCUUAUAAAGUACUAUCACGAAAGUGAUAGUACA [Sensor 3, v1 - 37] (puzzle: Sensor v3, turn-off variant 1)",,,,0.211 µM,0.0142 µM,0.0141 µM
AUUUAACAUGAGGAUCACCCAUGUGAGGAUAUGUAAAUUUUAAACAAAUAGGAAAUGAACAGAAGGCACACCGG [JR_Exclusion1_Sub006] (puzzle: Exclusion 1),,,,0.0416 µM,0.0617 µM,0.037 µM
"AGUACUAACACGAAAGUGUUAGUACAAUAAGCUUGUGCAACAUGAGGAUCACCCAUGUCCUCAUAAGCUCGUCUUAU [salish99_TOv2_r3_044] (puzzle: Sensor v3, turn-off variant 2)",,,,0.0752 µM,0.544 µM,0.574 µM
AAGAAACAUGAGGAUCACCCAUGUGAGGAUAUGAAAAAGAAAAGAAAAGAAAGAAGUAUCAGAAGGCACAAAGG [salish99-ex1_r3_023] (puzzle: Exclusion 1),,,,0.0386 µM,0.0576 µM,0.0628 µM
"GUUGUUUAUGUAGGAUAUGCCAGGCGAGCCUAAGCAGAAGGACAUGAGGAUCACCCAUGUAUUGCGGUCUGCGUUCAGAUCGCU [salish99_ExNG1_r4_017] (Eterna round: R96, puzzle: Exclusion NG 1)",0.0635 µM,0.0183 µM,0.0237 µM,,,
UCGCUGCGAGGAUAUACAUGAGGAUCACCCAUGUACGGGUCCGGGUUUGAGUUGAUGAGUAGAAGGCGCAGUGA [JL Laongeedie mod 13] (puzzle: Exclusion 3),,,,0.0792 µM,,
"GUGUGCACGCUGCGAUCCUACAUGAGGAUCACCCAUGUGGUCUGGUGGCGUGGGUCACCGGACUUGGCUCGUCUUGC [salish99_S_TOV1_R5_072] (Eterna round: R97, puzzle: Sensor, turn-off variant 1)",0.0356 µM,,0.0358 µM,,,
"GCUUGAGCAGGAUAUACAUGAGGAUCACCCAUGUGCUUGAGCUUGAUCGAGUUCGAGUGUAGAAGGGUUCGAGU [-26.9, -23.9 kcal, 24% A, 1 bis, 1 bis] (Eterna round: R97, puzzle: Exclusion 3)",0.0208 µM,,0.0197 µM,,,
"UGAGCUUGAGGAUAUACAAGGCGACCGUGAGGUCGAGGGUUACAUGAGGAUCACCCAUGUAGAAGGCAAGUUCU [Mat - Exclusion 2 - JL Mod - D10] (Eterna round: R97, puzzle: Exclusion 2)",0.46 µM,,0.0543 µM,,,

Sequence,apparent KD of MS2 coat protein (input ligand: FMN 200 uM),apparent KD of MS2 coat protein [1],apparent KD of MS2 coat protein (input ligand: none),apparent KD of MS2 coat protein [2],apparent KD of MS2 coat protein [3],apparent KD of MS2 coat protein [4]
"ACCAAGUCAGGAUAUCCAGUUAGCCUUCGAGGCUGGGAAUAGGAGAAGGGACAUGAGGAUCACCCAUGUGGGCC [Eternabot (L2) Solution 78] (Eterna round: R97, puzzle: Exclusion 4)",0.215 µM,,0.0544 µM,,,
"CCUCCACAUGAGGAUCACCCAUGUCAGGAUAUCGUGUGCGCGUUUUCGGUCUUUCGCGCGAGAAGGGACGACUG (Eterna round: R96, puzzle: Exclusion 1)",0.032 µM,0.0225 µM,0.0302 µM,,,
"UUUUACAAGCUUAGAUCCUACAUGAGGAUCACCCAUGUGGUCCGGUGACGUGAGUCACCGGACUAAGCUCGUCUUGU [JL TOV1 3.71] (Eterna round: R97, puzzle: Sensor, turn-off variant 1)",0.124 µM,,0.114 µM,,,
"GAUACACAUGAGGAUCACCCAUGUGAGGAUAUGGAGGAGUUGCGAGUAAGCGAUGGAUCCAGAAGGCGCGUGAG [JR_Ex1_Sub082] (Eterna round: R97, puzzle: Exclusion 1)",0.0732 µM,,0.0642 µM,,,
"CACUGGACAGGAUAUGUUCUUGAGCACUUGAGGAUCACCCAAGUCAUCAAGAACUCAGGCACAGAAGGGUUUAUGC [salish99_ex5_r4_012] (Eterna round: R97, puzzle: Exclusion 5)",0.0247 µM,,0.014 µM,,,
"GGUCAAGAACAGAACCGCGCUGCCAUUGACCGCUCAUUUACAUGAGGAUCACCCAUGUUUUUUGCUUGUCUUGUUAC [Beusdieson] (puzzle: Sensor v3, turn-off variant 2)",,,,0.0899 µM,0.0162 µM,0.0187 µM
AACGUGGCUUAGGAUAUUGCUACGCAAAAGUAACAAGAAGGAGGCACAUGAGGAUCACCCAUGUGAUUCGUUGA [Ineror] (puzzle: Exclusion 6),,,,0.0148 µM,,
"CCGUGCAGGCUGCGGUCCUACAUGAGGAUCACCCAUGUGGUCCGGUGGCGUGGGUCGCCGGACUUGGCUCGUCUUGU [salish99_S_TOV1_R5_016] (Eterna round: R97, puzzle: Sensor, turn-off variant 1)",0.0751 µM,,0.0863 µM,,,
"UUGUAACAUGAGGAUCACCCAUGUGAGGAUAUGGUUAAGUAAUGUAAUGUAAAGUAAUCCAGAAGGCACAUGUU [1st #24] (Eterna round: R97, puzzle: Exclusion 1)",0.488 µM,,0.328 µM,,,
"ACAUGUAUUGCAGGAUAUGGGACACAUGAGGAUCACCCAUGUGACCAUAUGUAAUGCUAAGAGUCUCAGAAGGGUAUGUACAUG [Ex NG2 #45] (Eterna round: R96, puzzle: Exclusion NG 2)",0.0107 µM,0.00859 µM,0.0114 µM,,,
"AGUUACUACAAGCUUUGGGACAUGAGGAUCACCCAUGUUCGUCUUAUUGUAGUAGGUACGCUGACGUACCUACUACU [Mat - Sensor v3 - turn-off var 1 - JL Mod - D6] (puzzle: Sensor v3, turn-off variant 1)",,,,0.0428 µM,0.0159 µM,0.0145 µM
"UACAUGAGGAUCACCCAUGUUUUGUCGUGUUUGGUACCCGUUUAGGAUAUCGUGUUAUUGGACCGCGAGAAGGAGAGUAUCAUU [Excl-NG3-LRO06] (Eterna round: R96, puzzle: Exclusion NG 3)",0.0322 µM,0.0184 µM,0.0399 µM,,,
GGAUCGAAAGUGAGGAUAUACCACUGGAUACAGUGGUAGAAGGCACAUGAGGAUCACCCAUGUCUCUACGAUCC [Fiskers BMX 4 - 42] (puzzle: Brourd's mod of Exclusion 4),,,,0.013 µM,0.0399 µM,0.015 µM
"GAUUAACAUGAGGAUCACCCAUGUGAGGAUAUGGACUUGCCCACUUACCCAUUAGAGUCUAGAAGGCGCAUCUG [1986#23] (Eterna round: R97, puzzle: Exclusion 1)",0.0484 µM,,0.0498 µM,,,
"AAUAACAAUGUGAGGAUAUCUAGAGCUUCGGCUCUAGAGAAGGCACAUGAGGAUCACCCAUGUCUCAAUAACAA [BmEx4/2-E6] (Eterna round: R97, puzzle: Brourd's mod of Exclusion 4)",0.339 µM,,0.0546 µM,,,
"GCCAUGGGAGGAUAUACGUCAUAGGUUACCUCACGCUGGCGACAUGAGGAUCACCCAUGUAGAAGGCUCAGAUG [Eternabot (L2) Solution 12] (Eterna round: R97, puzzle: Exclusion 2)",0.101 µM,,0.113 µM,,,
GAGGAGCAAGGAUAUACGAGGAUAUGGUAGUUUGUAGAGUGACAUGAGGAUCACCCAUGUAGAAGGUGCGAGGG [JR_Exclu2_Sub099] (puzzle: Exclusion 2),,,,0.0417 µM,,
